B1: HPV35-E6, P27228 (peptide)
chain: SKPTRRETEV

biological target: DLG4_2, P78352; assay: holdup assay; set-up: key: below the threshold = too weak to quantify, mostly under pKd 3.1 to 4; settings: plain residues with an end cap or a label only (N-terminal biotin on a linker: ttds)
Sequence (P78352 155-259): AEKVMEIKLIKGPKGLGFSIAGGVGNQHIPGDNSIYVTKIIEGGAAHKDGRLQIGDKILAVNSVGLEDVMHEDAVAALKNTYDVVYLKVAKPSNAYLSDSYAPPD

Row | Binder | pKd
1 | B1 | 5.51

biological target: T1, ARHGAP21, Q5T5U3; assay: holdup assay; set-up: key: below the threshold = too weak to quantify, mostly under pKd 3.1 to 4; settings: plain residues with an end cap or a label only (N-terminal biotin on a linker: ttds)
T1 sequence (Q5T5U3 45-169, limits assumed, looked up): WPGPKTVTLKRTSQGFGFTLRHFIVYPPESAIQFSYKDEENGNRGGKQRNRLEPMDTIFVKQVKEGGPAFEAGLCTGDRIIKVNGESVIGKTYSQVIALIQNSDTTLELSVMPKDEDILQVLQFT

Row | Binder | pKd
2 | B1 | below the threshold

biological target: T2, DLG3_2, Q92796; assay: holdup assay; set-up: key: below the threshold = too weak to quantify, mostly under pKd 3.1 to 4; settings: plain residues with an end cap or a label only (N-terminal biotin on a linker: ttds)
T2 sequence (Q92796 221-321, limits assumed, looked up): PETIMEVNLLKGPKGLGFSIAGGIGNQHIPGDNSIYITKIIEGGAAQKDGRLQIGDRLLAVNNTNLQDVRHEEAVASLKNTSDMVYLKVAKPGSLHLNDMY

Row | Binder | pKd
3 | B1 | 5.49

biological target: T3, SNTG2, Q9NY99; assay: holdup assay; set-up: key: below the threshold = too weak to quantify, mostly under pKd 3.1 to 4; settings: plain residues with an end cap or a label only (N-terminal biotin on a linker: ttds)
T3 sequence (Q9NY99 68-166, limits assumed, looked up): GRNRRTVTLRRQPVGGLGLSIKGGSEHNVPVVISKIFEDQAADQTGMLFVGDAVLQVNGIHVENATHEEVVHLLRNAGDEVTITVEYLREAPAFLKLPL

Row | Binder | pKd
4 | B1 | 3.95

biological target: T4, TJP3_3, O95049; assay: holdup assay; set-up: key: below the threshold = too weak to quantify, mostly under pKd 3.1 to 4; settings: plain residues with an end cap or a label only (N-terminal biotin on a linker: ttds)
T4 sequence (O95049 375-456, limits assumed, looked up): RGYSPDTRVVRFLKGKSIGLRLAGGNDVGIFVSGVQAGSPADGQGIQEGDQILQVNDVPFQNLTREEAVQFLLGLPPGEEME

Row | Binder | pKd
5 | B1 | below the threshold

biological target: T5, SIPA1L2, Q9P2F8; assay: holdup assay; set-up: key: below the threshold = too weak to quantify, mostly under pKd 3.1 to 4; settings: plain residues with an end cap or a label only (N-terminal biotin on a linker: ttds)
T5 sequence (Q9P2F8 945-1036, limits assumed, looked up): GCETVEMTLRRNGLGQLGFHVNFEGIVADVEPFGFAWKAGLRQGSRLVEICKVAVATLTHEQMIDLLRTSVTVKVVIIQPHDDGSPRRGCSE

Row | Binder | pKd
6 | B1 | below the threshold

biological target: NHERF4_2, Q86UT5; assay: holdup assay; set-up: key: below the threshold = too weak to quantify, mostly under pKd 3.1 to 4; settings: plain residues with an end cap or a label only (N-terminal biotin on a linker: ttds)
Sequence (Q86UT5 220-308): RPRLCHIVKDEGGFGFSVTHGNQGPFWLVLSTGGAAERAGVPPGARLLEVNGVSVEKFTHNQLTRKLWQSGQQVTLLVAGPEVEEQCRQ

Row | Binder | pKd
7 | B1 | below the threshold

biological target: PTPN3, P26045; assay: holdup assay; set-up: key: below the threshold = too weak to quantify, mostly under pKd 3.1 to 4; settings: plain residues with an end cap or a label only (N-terminal biotin on a linker: ttds)
Sequence (P26045 505-587): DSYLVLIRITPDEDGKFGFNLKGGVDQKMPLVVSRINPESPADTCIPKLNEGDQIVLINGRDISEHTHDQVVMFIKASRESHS

Row | Binder | pKd
8 | B1 | 4.93

biological target: T6, PTPN13_1, Q12923; assay: holdup assay; set-up: key: below the threshold = too weak to quantify, mostly under pKd 3.1 to 4; settings: plain residues with an end cap or a label only (N-terminal biotin on a linker: ttds)
T6 sequence (Q12923 1088-1188, limits assumed, looked up): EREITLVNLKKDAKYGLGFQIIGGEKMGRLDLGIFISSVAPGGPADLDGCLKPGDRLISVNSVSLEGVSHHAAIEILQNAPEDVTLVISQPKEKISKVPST

Row | Binder | pKd
9 | B1 | below the threshold

biological target: LNX1_2, Q8TBB1; assay: holdup assay; set-up: key: below the threshold = too weak to quantify, mostly under pKd 3.1 to 4; settings: plain residues with an end cap or a label only (N-terminal biotin on a linker: ttds)
Sequence (Q8TBB1 371-470): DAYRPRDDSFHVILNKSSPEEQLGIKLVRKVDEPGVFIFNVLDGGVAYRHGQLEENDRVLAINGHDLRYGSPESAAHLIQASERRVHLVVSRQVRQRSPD

Row | Binder | pKd
10 | B1 | below the threshold

biological target: T7, SYNJ2BP, P57105; assay: holdup assay; set-up: key: below the threshold = too weak to quantify, mostly under pKd 3.1 to 4; settings: plain residues with an end cap or a label only (N-terminal biotin on a linker: ttds)
T7 sequence (P57105 8-110, limits assumed, looked up): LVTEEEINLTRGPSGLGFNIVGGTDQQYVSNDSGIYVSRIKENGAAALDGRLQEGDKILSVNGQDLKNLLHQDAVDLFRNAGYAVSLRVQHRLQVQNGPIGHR

Row | Binder | pKd
11 | B1 | 5.69

biological target: SCRIB_3, Q14160; assay: holdup assay; set-up: key: below the threshold = too weak to quantify, mostly under pKd 3.1 to 4; settings: plain residues with an end cap or a label only (N-terminal biotin on a linker: ttds)
Sequence (Q14160 999-1103): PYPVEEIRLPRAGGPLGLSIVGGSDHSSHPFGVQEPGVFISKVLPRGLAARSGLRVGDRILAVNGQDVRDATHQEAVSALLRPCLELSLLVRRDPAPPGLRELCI

Row | Binder | pKd
12 | B1 | 4.89

biological target: FRMPD3, Q5JV73; assay: holdup assay; set-up: key: below the threshold = too weak to quantify, mostly under pKd 3.1 to 4; settings: plain residues with an end cap or a label only (N-terminal biotin on a linker: ttds)
Sequence (Q5JV73 12-100): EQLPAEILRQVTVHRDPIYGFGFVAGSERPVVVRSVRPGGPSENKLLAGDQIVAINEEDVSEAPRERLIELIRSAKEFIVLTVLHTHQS

Row | Binder | pKd
13 | B1 | below the threshold

biological target: T8, DFNB31_1, Q9P202; assay: holdup assay; set-up: key: below the threshold = too weak to quantify, mostly under pKd 3.1 to 4; settings: plain residues with an end cap or a label only (N-terminal biotin on a linker: ttds)
T8 sequence (Q9P202 135-233, limits assumed, looked up): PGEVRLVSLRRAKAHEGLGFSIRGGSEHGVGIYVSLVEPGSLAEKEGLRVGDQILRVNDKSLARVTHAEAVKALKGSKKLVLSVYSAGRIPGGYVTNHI

Row | Binder | pKd
14 | B1 | below the threshold

biological target: DLG2_2, Q15700; assay: holdup assay; set-up: key: below the threshold = too weak to quantify, mostly under pKd 3.1 to 4; settings: plain residues with an end cap or a label only (N-terminal biotin on a linker: ttds)
Sequence (Q15700 189-283): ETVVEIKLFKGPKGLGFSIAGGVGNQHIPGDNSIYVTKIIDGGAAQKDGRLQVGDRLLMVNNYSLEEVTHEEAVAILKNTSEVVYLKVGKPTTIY

Row | Binder | pKd
15 | B1 | 5.27

biological target: GRASP, Q7Z6J2; assay: holdup assay; set-up: key: below the threshold = too weak to quantify, mostly under pKd 3.1 to 4; settings: plain residues with an end cap or a label only (N-terminal biotin on a linker: ttds)
Sequence (Q7Z6J2 96-193): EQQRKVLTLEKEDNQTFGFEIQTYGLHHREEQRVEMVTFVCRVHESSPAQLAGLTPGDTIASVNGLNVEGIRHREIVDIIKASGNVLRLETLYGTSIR

Row | Binder | pKd
16 | B1 | below the threshold

biological target: SCRIB_1, Q14160; assay: holdup assay; set-up: key: below the threshold = too weak to quantify, mostly under pKd 3.1 to 4; settings: plain residues with an end cap or a label only (N-terminal biotin on a linker: ttds)
Sequence (Q14160 718-814): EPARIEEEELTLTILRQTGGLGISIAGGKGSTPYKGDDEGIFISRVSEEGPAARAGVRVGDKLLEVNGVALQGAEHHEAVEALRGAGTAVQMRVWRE

Row | Binder | pKd
17 | B1 | 4.56

biological target: Inadl_6, Q8NI35; assay: holdup assay; set-up: key: below the threshold = too weak to quantify, mostly under pKd 3.1 to 4; settings: plain residues with an end cap or a label only (N-terminal biotin on a linker: ttds)
Sequence (Q8NI35 1058-1167): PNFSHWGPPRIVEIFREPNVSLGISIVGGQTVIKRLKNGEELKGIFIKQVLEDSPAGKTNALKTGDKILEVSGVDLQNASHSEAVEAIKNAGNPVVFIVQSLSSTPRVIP

Row | Binder | pKd
18 | B1 | below the threshold

biological target: T9, DLG3_3, Q92796; assay: holdup assay; set-up: key: below the threshold = too weak to quantify, mostly under pKd 3.1 to 4; settings: plain residues with an end cap or a label only (N-terminal biotin on a linker: ttds)
T9 sequence (Q92796 374-475, limits assumed, looked up): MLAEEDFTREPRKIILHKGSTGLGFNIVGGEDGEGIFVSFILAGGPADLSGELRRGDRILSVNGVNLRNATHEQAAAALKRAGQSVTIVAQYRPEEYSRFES

Row | Binder | pKd
19 | B1 | 5.18

biological target: T10, LRRC7, Q96NW7; assay: holdup assay; set-up: key: below the threshold = too weak to quantify, mostly under pKd 3.1 to 4; settings: plain residues with an end cap or a label only (N-terminal biotin on a linker: ttds)
T10 sequence (Q96NW7 1440-1537, limits assumed, looked up): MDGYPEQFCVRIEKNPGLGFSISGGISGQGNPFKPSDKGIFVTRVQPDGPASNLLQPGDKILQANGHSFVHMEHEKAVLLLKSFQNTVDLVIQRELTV

Row | Binder | pKd
20 | B1 | 3.59

biological target: T11, SHANK1, Q9Y566; assay: holdup assay; set-up: key: below the threshold = too weak to quantify, mostly under pKd 3.1 to 4; settings: plain residues with an end cap or a label only (N-terminal biotin on a linker: ttds)
T11 sequence (Q9Y566 658-767, limits assumed, looked up): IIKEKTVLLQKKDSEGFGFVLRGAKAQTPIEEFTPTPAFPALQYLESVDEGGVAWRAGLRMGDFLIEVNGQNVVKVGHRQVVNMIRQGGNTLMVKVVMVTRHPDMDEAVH

Row | Binder | pKd
21 | B1 | below the threshold

biological target: SCRIB_2, Q14160; assay: holdup assay; set-up: key: below the threshold = too weak to quantify, mostly under pKd 3.1 to 4; settings: plain residues with an end cap or a label only (N-terminal biotin on a linker: ttds)
Sequence (Q14160 857-960): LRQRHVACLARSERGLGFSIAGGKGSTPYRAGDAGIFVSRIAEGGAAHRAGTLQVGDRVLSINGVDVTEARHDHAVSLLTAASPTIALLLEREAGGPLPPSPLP

Row | Binder | pKd
22 | B1 | 4.7

biological target: AHNAK1, Q09666; assay: holdup assay; set-up: key: below the threshold = too weak to quantify, mostly under pKd 3.1 to 4; settings: plain residues with an end cap or a label only (N-terminal biotin on a linker: ttds)
Sequence (Q09666 4-100): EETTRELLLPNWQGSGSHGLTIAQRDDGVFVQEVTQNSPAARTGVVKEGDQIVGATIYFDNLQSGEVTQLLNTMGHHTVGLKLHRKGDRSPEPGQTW

Row | Binder | pKd
23 | B1 | below the threshold

biological target: T12, MPP2, Q14168; assay: holdup assay; set-up: key: below the threshold = too weak to quantify, mostly under pKd 3.1 to 4; settings: plain residues with an end cap or a label only (N-terminal biotin on a linker: ttds)
T12 sequence (Q14168 180-250, limits assumed, looked up): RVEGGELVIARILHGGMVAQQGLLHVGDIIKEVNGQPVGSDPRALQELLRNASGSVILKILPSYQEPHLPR

Row | Binder | pKd
24 | B1 | below the threshold

biological target: NHERF2_2, Q15599; assay: holdup assay; set-up: key: below the threshold = too weak to quantify, mostly under pKd 3.1 to 4; settings: plain residues with an end cap or a label only (N-terminal biotin on a linker: ttds)
Sequence (Q15599 142-238): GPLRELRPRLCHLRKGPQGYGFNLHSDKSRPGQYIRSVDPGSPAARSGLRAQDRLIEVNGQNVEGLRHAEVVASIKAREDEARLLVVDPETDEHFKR

Row | Binder | pKd
25 | B1 | below the threshold

biological target: PDZRN4_1, Q6ZMN7; assay: holdup assay; set-up: key: below the threshold = too weak to quantify, mostly under pKd 3.1 to 4; settings: plain residues with an end cap or a label only (N-terminal biotin on a linker: ttds)
Sequence (Q6ZMN7 213-318): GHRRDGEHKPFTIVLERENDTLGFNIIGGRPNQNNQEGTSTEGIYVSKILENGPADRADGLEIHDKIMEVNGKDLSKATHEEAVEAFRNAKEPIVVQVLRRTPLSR

Row | Binder | pKd
26 | B1 | 4.38

— paper PMC9482650, “Quantitative fragmentomics allow affinity mapping of interactomes” (Nature Communications, 2022)
